Experimental data published in paper PMC9783675.

Molecular target: recombinant Nodulin 22 (PvNod22) with a 6xHis-tag at the N-terminus, lacking the ER-signal peptide (Phaseolus vulgaris L.)
Assay: ITC; dilution experiment: PvNod22 injected (10 x 2 µL) into buffer, PBS pH 7.5, 25 °C; agglomerates to smaller oligomers; apparent
Set-up: dH (of dissociation): unit not given here

recombinant Nodulin 22 (PvNod22) with a 6xHis-tag at the N-terminus, lacking the ER-signal peptide (natural protein)
Kd: 9.13 µM
dH (of dissociation): -49600
